Changes are numbered by the printed parent chain. In names and notes the source's numbering stands. In brackets after ≈: the same amount, converted by molar mass.
Columns and labels:
[1] = Solubility of PFPA substrate; format: physicochemical
Experimental: The enzyme tolerates acetone concentrations as high as 20% v/v. The PFPA substrate has a limited solubility of 40 mM in aqueous media, but was increased to 60 mM with the addition of acetone.

[2] = Reductive amination, spectrophotometric assay at 340 nm; format: biochemical; settings: for Reductive amination specific activity: maximum specific activity, nonlinear fit
Experimental: (§1) Activity of purified proteins was measured using a spectrophotometric assay at 340 nm, corresponding to the cofactor nicotinamide adenine dinucleotide (NADH, ε340=6220 M^−1 cm^−1) (Dawson, et al., Clarendon Press, (1989). For reductive amination, reactions took place in 500 mM NH4Cl/NH4OH at pH 9.6, with 200 μM NADH and 20 mM of the ketone substrate, unless otherwise specified. For oxidative deamination, reactions took place in 0.1 M NaHCO3/Na2CO3 buffer at pH 10.0, with 1 mM NAD+ with 10 mM of the amine substrate of interest. All reactions were performed at 25° C. unless otherwise specified. Enzyme was added in 10 μL aliquots in dilute concentrations. Enzyme concentrations varied upon activity levels with the substrate present, but were dilute enough to ensure linear conversion kinetics over the analytical time period (10 min to 30 min). Specific activities were then calculated from the stoichiometric conversion of cofactor as determine by the change in absorbance at 340 nm over time.

[3] = Oxidative deamination, spectrophotometric assay at 340 nm; format: biochemical; settings: for Oxidative deamination specific activity: maximum specific activity, 1,3-DMBA
Experimental: as §1, with “For oxidative deamination, reactions took place in 0.1 M NaHCO3/Na2CO3 buffer at pH 10.0, with 1 mM NAD+ with 10 mM of the amine substrate of interest.” left out

[4] = Amination of phenylpyruvate; format: biochemical; settings: 500 mM NH4Cl/NH4OH pH 9.6, 200 μM NADH, 5 mM phenylpyruvate, 25° C.
Experimental: (§2) The wild-type PheDH from B. badius was characterized to ensure proper expression and folding prior to mutation. […] KM values were determined for the substrates when possible, and corresponded well to those values found in literature (110). Additionally, the K1 value of ammonia was determined to be 5.0 M. The KM of phenylpyruvate could not be determined due to its high absorbance at the analytical wavelength. The wild-type enzyme was determined to be properly folded and active.

Deamination of L-Phe = format: biochemical; settings: 0.1 M Glycine pH 10.0, 1 mM NAD+, 20 mM L-Phe, 25° C.
Experimental: as §2

[5] = Kinetic parameters for ammonia (PheDH / PheDH-AmDH); format: biochemical; settings: amination of phenylpyruvate; read-out: KM, NH3
Experimental: as §2
Kinetic parameters, kcat and KM, were determined for the enzyme and each of the reductive amination substrates; respectively. […] The kcat value for this AmDH enzyme with all three substrates saturated in aqueous NH4Cl/NH4OH buffer at pH 9.6 was 6.85 s^−1 at 25° C. This represents a near 15-fold enhancement above the maximum observed kcat of 0.46 s^−1 of the previously developed LeuDH-AmDH.

[6] = Native leucine dehydrogenase activity; format: biochemical
Experimental: as §1

[7] = Oxidative deamination, spectrophotometric assay at 340 nm; format: biochemical
Experimental: as §1, with “For oxidative deamination, reactions took place in 0.1 M NaHCO3/Na2CO3 buffer at pH 10.0, with 1 mM NAD+ with 10 mM of the amine substrate of interest.” left out
The enantioselectivity was initially estimated by measuring the deamination activity toward individual enantiomers of methylbenzylamine (MBA). […] A preference towards (R)-MBA over the corresponding (S)-enantiomer was evident in the discrepancies between the deamination activities of 0.586 U mg^−1 and 0.002 U mg^−1, respectively. These preliminary results were corroborated through direct measurement of the enantioselectivity of the MIBK amination in producing chiral 1,3-DMBA.

[8] = Conversion with GDH cofactor recycle system (LeuDH-AmDH); format: biochemical; settings: 10 mM MIBK
Experimental: Initial rate kinetic measurements are used primarily in the determination of kinetic parameters to avoid second-order effects and product inhibition. The enzyme's ability to reach complete substrate conversion cannot be determined from these initial rate experiments, and was instead evaluated by chiral GC of overnight conversion with a GDH recycle system. The GDH regenerates the expensive NADH by redox reaction of NAD+ and inexpensive glucose (FIG. 1). In 1.5 mL reactions, replicates containing 10 mM MIBK substrate was mixed with an excess of 12 mM glucose, 10 U GDH, and a catalytic amount of NADH (200 μM). Histag purified K67S/E113V/N261L/V290C LeuDH-AmDH (0.13 mg) was added to each reaction and allowed to convert for 18 hours. An additional 0.13 mg of enzyme was then added and allowed to react for 10 hours to achieve the maximum conversion. One mL aliquots of the final reaction media were adjusted to pH>13 by the addition of 100 μL of 10 N NaOH and derivatized in toluene according to the TFAA protocol.
The product amine was additionally confirmed through ^1H NMR. A 175 mL-scale amination reaction with GDH cofactor recycle was performed similar to previous conversion experiments. […] Following separation, the solvent was removed through rotovap distillation, and the purified product was analyzed by ^1H NMR. […]

[9] = purified LeuDH library 10/11 hits

Work on `CC(=O)Cc1ccc(F)cc1` [PFPA, para-fluoro phenyl acetone] yielded a solubility ([1]; aqueous media) of 40 mM (≈ 6090 µg/mL) and a solubility ([1]; aqueous media with added acetone, aqueous with cosolvent or surfactant or cyclodextrin, with the addition of acetone) of 60 mM (≈ 9130 µg/mL).

B1: Wild Type: PheDH from Bacillus badius, SEQ ID NO:1 (protein, listed as Bacillus badius)
chain: SLVEKTSIIKDFTLFEKMSEHEQVVFCNDPATGLRAIIAIHDTTLGPALGGCRMQPYNSVEEALEDALRLSKGMTYKCAASDVDFGGGKAVIIGDPQKDKSPELFRAFGQFVDSLGGRFYTGTDMGTNMEDFIHAMKETNCIVGVPEAYGGGGDSSIPTAMGVLYGIKATNKMLFGKDDLGGVTYAIQGLGKVGYKVAEGLLEEGAHLFVTDINEQTLEAIQEKAKTTSGSVTVVASDEIYSQEADVFVPCAFGGVVNDETMKQFKVKAIAGSANNQLLTEDHGRHLADKGILYAPDYIVNSGGLIQVADELYEVNKERVLAKTKHIYDAILEVYQQAELDQITTMEAANRMCEQRMAARGRRNSFFTSSVKPKWDIRN
With B1 the “Amination Activity 40 mM MIBK, kcat” value ([2]; 500 mM NH4Cl/NH4OH pH 9.6, 200 μM NADH, 25° C.) was “—No Activity—”, the “Deamination Activity 40 mM 1,3-DMBA, kcat” value ([3]; 0.1M Glycine pH 10.0, 1 mM NAD+, 25° C.) was “—No Activity—” and the “activity in the amination of phenylpyruvate” value [4] was “greater than 257 U mg^−1”. The “activity in the deamination of L-Phe” value (Deamination of L-Phe) was 39.5 U mg^−1 and the Km [5] was 64.5 mM.

B2: WT: LeuDH from Bacillus stearothermophilus, SEQ ID NO:4 (protein, listed as Bacillus stearothermophilus)
chain: ELFQYMEKYDYEQVLFCQDKESGLKAIIVIHDTTLGPALGGTRMWMYNSEEEALEDALRLARGMTYKNAAAGLNLGGGKTVIIGDPRKDKNEAMFRAFGRFIQGLNGRYITAEDVGTTVADMDIIYQETDYVTGISPEFGSSGNPSPATAYGVYRGMKAAAKEAFGSDSLEGKVVAVQGVGNVAYHLCRHLHEEGAKLIVTDINKEAVARAVEEFGAKAVDPNDIYGVECDIFAPCALGGIINDQTIPQLKAKVIAGSADNQLKEPRHGDMIHEMGIVYAPDYVINAGGVINVADELYGYNRERAMKKIEQIYDNIEKVFAIAKRDNIPTYVAADRMAEERIETMRKARSQFLQNGHHILSRRRAR
In the case of B2, the “activity for reductive amination” value ([2]; MIBK) is reported as “no measurable activity”, the “Reductive amination specific activity” value ([2]; MIBK) is reported as “n.m.^[c]” and the “Oxidative deamination specific activity” value [3] is reported as “n.m”. For the same molecule, the “native activity toward 1-Leu” value [6] was 112 U mg^−1.

B3: K67S/E113V/N261L/V290C: LeuDH-AmDH quadruple variant, SEQ ID NO:10, library 11 (protein)
chain: B2 chain with M64S, K67M, E113V, N261L, V290C
For B3, the “Specific activity, acetophenone” value ([2]; 20 mM substrate) was 58.8 mU mg^−1 protein, the “Specific activity, cyclohexanone” value ([2]; 20 mM substrate) was 123.4 mU mg^−1 protein and the “Specific activity, ethyl pyruvate” value ([2]; 20 mM substrate) was 13.2 mU mg^−1 protein. For the same molecule, the “Specific activity, ethyl-3-oxohexanoate” value ([2]; 20 mM substrate) was 14.0 mU mg^−1 protein, the “Specific activity, methyl acetoacetate” value ([2]; 20 mM substrate) was 4.5 mU mg^−1 protein and the kcat ([2]; MIBK amination) was 0.46 s⁻¹. The Km ([2]; MIBK substrate, read-out: KM (reductive amination)) was 15.1 mM, the amination activity ([2]; MIBK, non-linear Michaelis-Menten fit) was 0.69 U mg^−1 and the “Reductive amination specific activity” value ([2]; MIBK) was 0.690 U mg^−1 protein. For the same molecule, the “Amination of MIBK Vmax” value [2, 9] was 0.331 ± 0.07, the Km ([2]; purified LeuDH library 10/11 hits, read-out: Amination of MIBK KM) was 18.7 ± 11.7 mM and the “Specific activity, cyclohexylamine” value ([3]; 20 mM substrate) was 56.0 mU mg^−1 protein. For the same molecule, the “Specific activity, (R/S)-MBA” value ([3]; 40 mM racemic, 20 mM of each enantiomer) was 784.6 mU mg^−1 protein, the Km ([3]; 1,3-DMBA substrate, read-out: KM (oxidative deamination)) was 57.5 mM and the “Oxidative deamination specific activity” value [3] was 2.64 U mg^−1 protein. For the same molecule, the “Deamination of 1,3-DMBA Vmax” value [3, 9] was 2.350 ± 0.26, the Km ([3]; purified LeuDH library 10/11 hits, read-out: Deamination of 1,3-DMBA KM) was 41.9 ± 9.7 mM and the “deamination activity toward (R)-MBA” value [7] was 0.586 U mg^−1. For the same molecule, the “deamination activity toward (S)-MBA” value [7] was 0.002 U mg^−1, the “Specific activity, (R)-MBA” value ([7]; 20 mM substrate) was 586.3 mU mg^−1 protein and the “Specific activity, (S)-MBA” value ([7]; 20 mM substrate) was 1.6 mU mg^−1 protein. It also gave an average substrate conversion ([8]; 1.5 mL, 18 h + 10 h, chiral GC) of 92.5% and a conversion ([8]; 175 mL-scale, 48 hours) of 84.7%.

Source: patent US8835136B2, “Engineered amine dehydrogenases and methods of use thereof” (Georgia Tech Research Corporation, priority 2012, dated 2014)
